± gives the uncertainty stated by the source.
Assay: protein stability index of a GFP-peptide fusion (yeast GPS) (PSI 1-4); higher = more stable; sorted into four equal gates, so the index is relative within each strain
How it was run: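 Mid-log yeast cultures in leucine-free medium, carrying a pooled plasmid library, were sorted into four equal gates by their GFP/Cherry fluorescence ratio. Each plasmid expressed Cherry along with GFP fused upstream of a tiled 17-residue yeast protein peptide. Plasmids recovered from each gate were PCR-amplified and Illumina-sequenced, with reads assigned to strains by barcodes. The protein stability index was obtained by summing each gate's read frequency weighted by its gate number.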

Row | Sequence | protein stability index (doa10∆) | protein stability index (pdr5∆) | protein stability index (san1∆) | protein stability index (ubr1∆)
1 | TNQDGLKFVKVRVRTTK [RPB2] | 2.42 ± 0.084 | 3.05 ± 0.12 | 3.3 ± 0.1 | 3.2 ± 0.088
2 | TNQKDTNDHVDKRTKID [ISW2] | 2.77 ± 0.069 | 3.05 ± 0.07 | 2.81 ± 0.059 | 2.72 ± 0.044
3 | TNTFGSNSAGTSLFGSS [YJL041W/NSP1] | 3.1 ± 0.083 | 2.84 ± 0.09 | 3.16 ± 0.082 | 3.15 ± 0.058
4 | TNVNVKIKDVQQQIESN [SMC3] | 3.19 ± 0.088 | 3.17 ± 0.081 | 3.18 ± 0.074 | 2.79 ± 0.1
5 | TNVYSKDLVIVSNLMGR [RPB3] | 3.04 ± 0.073 | 2.97 ± 0.059 | 2.96 ± 0.051 | 2.79 ± 0.04
6 | TPANNGENAAEKPDNSN [SNF2] | 1.89 ± 0.075 | 2.24 ± 0.098 | 1.81 ± 0.1 | 2.71 ± 0.068
7 | TPAPKISYKKGAASNRT [RPL36A] | 2.98 ± 0.072 | 3.22 ± 0.06 | 3.17 ± 0.058 | 3.1 ± 0.042
8 | TPDATKIKAILESVGIE [RPP2A] | 2.31 ± 0.084 | 3.2 ± 0.16 | 3.08 ± 0.12 | 3.18 ± 0.063
9 | TPGELVTDDPIWMRGHG [RRP4] | 2.65 ± 0.19 | 2.9 ± 0.13 |  | 3.14 ± 0.15
10 | TPGEVASKAIVQMAKIL [MCD1] | 3.26 ± 0.14 | 3 ± 0.11 |  | 
11 | TPKGNESEQELSLHTGF [MTR3] | 3.22 ± 0.11 | 3.13 ± 0.1 | 3.18 ± 0.12 | 3.17 ± 0.061
12 | TPKLQTQLSYLISSSLS [YCS4] | 1.95 ± 0.047 | 2.14 ± 0.052 | 2 ± 0.08 | 2.09 ± 0.046
13 | TPLLENISISTSELGND [BRR2] | 2.16 ± 0.058 | 2.05 ± 0.049 | 2.2 ± 0.07 | 2.03 ± 0.042
14 | TPNFDDVLKENNDADKG [RIP1] | 1.51 ± 0.093 | 1.35 ± 0.12 | 1.29 ± 0.15 | 1.76 ± 0.092
15 | TPNLWAEQPLPVSPLDI [RPS2] | 1.41 ± 0.045 | 2.07 ± 0.06 | 2.31 ± 0.056 | 1.58 ± 0.066
16 | TPNVREEKQKSYKFPRG [PUP1] | 3.29 ± 0.13 | 2.74 ± 0.12 | 3.13 ± 0.095 | 
17 | TPSTNEPYARVSGDLNP [FAS1] | 2.96 ± 0.074 | 2.6 ± 0.077 | 2.46 ± 0.15 | 2.39 ± 0.073
18 | TQDDFTTSVDVMLKGIV [SRP54] | 1.63 ± 0.1 | 2.23 ± 0.081 | 1.67 ± 0.12 | 1.51 ± 0.047
19 | TQIANAGASPMVNTQQP [PRE4] | 2.94 ± 0.11 | 3.07 ± 0.09 | 2.82 ± 0.075 | 2.82 ± 0.18
20 | TQPKAEATQDDDFDMLF [NUT1] | 2.73 ± 0.069 | 3.15 ± 0.051 | 2.99 ± 0.053 | 3.14 ± 0.043
21 | TQPKSSSSMDMQANTNA [SSN3] | 2.55 ± 0.06 | 2.43 ± 0.046 | 3.13 ± 0.041 | 2.45 ± 0.039
22 | TQTESKKEENETISNVA [SNF2] | 3.07 ± 0.056 | 3.1 ± 0.048 | 2.98 ± 0.045 | 3.19 ± 0.038
23 | TQVFNILLQHKEKLTVQ [POP1] | 3.1 ± 0.084 | 3.11 ± 0.066 | 3.13 ± 0.058 | 2.94 ± 0.036
24 | TQVNILKENNAILQKSL [YIL149C/MLP2] | 2.44 ± 0.06 | 2.55 ± 0.062 | 2.63 ± 0.076 | 2.65 ± 0.059
25 | TQVYKLGLAKSVHHARV [RPS9A] | 1.94 ± 0.089 | 1.48 ± 0.053 | 1.55 ± 0.14 | 1.24 ± 0.066
26 | TRAGGLGINLVTADTVI [ISW2] | 2.19 ± 0.061 | 2.13 ± 0.054 | 2.12 ± 0.1 | 2.89 ± 0.096

Row | Sequence | protein stability index (doa10∆) | protein stability index (pdr5∆) | protein stability index (san1∆) | protein stability index (ubr1∆)
27 | TRIKLLLTKNVSCYRPR [RPS6A] | 2.11 ± 0.22 | 2.64 ± 0.14 | 2.88 ± 0.11 | 2.94 ± 0.17
28 | TRLYDYEIRDIDQDIHG [SSN2] | 3.54 ± 0.11 | 3.55 ± 0.16 | 3.48 ± 0.094 | 3.49 ± 0.11
29 | TRPLTLSHGSLEHVLLV [FAS1] | 2.39 ± 0.068 | 2.72 ± 0.076 | 2.67 ± 0.068 | 3.12 ± 0.065
30 | TRPQMPSRTRETATSER [GRR1] | 2.85 ± 0.062 | 3.12 ± 0.06 | 3.03 ± 0.05 | 3.05 ± 0.036
31 | TRRFVNVTLVNGKRRMN [RPS30A] | 1.67 ± 0.055 | 1.51 ± 0.038 | 1.73 ± 0.084 | 2.37 ± 0.038
32 | TRSALKLVRESELLGGT [QCR2] | 2.51 ± 0.29 | 2.5 ± 0.24 | 2.21 ± 0.16 | 
33 | TRSWRPPQAGDRSLADD [RPB8] | 3.1 ± 0.11 | 3.09 ± 0.16 | 3.32 ± 0.13 | 3.21 ± 0.11
34 | TRVRLPSGAKKVISSDA [RPL2A] | 3.25 ± 0.092 | 3.27 ± 0.084 | 3.26 ± 0.049 | 3.26 ± 0.072
35 | TRVTRLSLQRANVEILA [CSL4] | 1.64 ± 0.042 | 1.78 ± 0.043 | 1.78 ± 0.081 | 2.03 ± 0.033
36 | TSAIEVLVGSCAYTGTG [RPN1] | 3.06 ± 0.067 | 3.35 ± 0.062 | 3.29 ± 0.06 | 3.28 ± 0.093
37 | TSDLLGSHLSETEFPPF [ECM29] | 2.94 ± 0.049 | 3.17 ± 0.062 | 3.17 ± 0.042 | 2.9 ± 0.058
38 | TSHYQNYHPNASITPYK [RPN4] | 2.84 ± 0.081 | 3.11 ± 0.074 | 2.94 ± 0.055 | 2.89 ± 0.063
39 | TSIARIGDYILKSPVLS [QCR7] | 1.5 ± 0.045 | 1.72 ± 0.045 | 1.49 ± 0.075 | 1.98 ± 0.033
40 | TSKMNLSEDVNLETLVT [RPT2] | 2.6 ± 0.14 | 2.85 ± 0.16 | 2.62 ± 0.15 | 2.78 ± 0.11
41 | TSKPVFSFGAATPSAKE [YLR335W/NUP2] | 2.95 ± 0.046 | 3.08 ± 0.053 | 3.08 ± 0.043 | 3.06 ± 0.041
42 | TSKWLNSITSGGLKSCD [YDL116W/NUP84] | 2.94 ± 0.097 | 3.17 ± 0.089 | 3.42 ± 0.078 | 2.7 ± 0.052
43 | TSLQGTYEAIEITDAYC [YMR129W/POM152] | 2.63 ± 0.053 | 2.86 ± 0.059 | 2.74 ± 0.049 | 2.52 ± 0.038
44 | TSLVANENDKIYLLFQS [YDL116W/NUP84] | 2.37 ± 0.058 | 2.59 ± 0.05 | 2.42 ± 0.054 | 2.79 ± 0.035
45 | TSMNGVHNTVAAGNASS [SNF5] | 2.73 ± 0.043 | 2.74 ± 0.037 | 2.76 ± 0.05 | 2.76 ± 0.051
46 | TSPVTGATEKRKCAKPF [CSL4] | 1.89 ± 0.23 | 1.27 ± 0.15 |  | 
47 | TSSAPAQNQGMFGAKPA [YGL172W/NUP49] | 2.44 ± 0.11 | 2.75 ± 0.089 | 1.92 ± 0.14 | 2.79 ± 0.069
48 | TSTKDKNSSTSNTEPIP [MED1] | 3.17 ± 0.058 | 3.27 ± 0.061 | 3.21 ± 0.046 | 3.16 ± 0.041
49 | TSTPPPPPAPHNLHPQI [SNF5] | 3.2 ± 0.058 | 3.16 ± 0.048 | 3.08 ± 0.049 | 3.14 ± 0.039
50 | TTAVDALQKGLKDLMDL [RPC19] | 3.58 ± 0.23 | 2.79 ± 0.26 | 2.9 ± 0.12 | 3.02 ± 0.13
51 | TTIEEIFLHSLPVKEFQ [RPS2] | 2.82 ± 0.067 | 2.78 ± 0.069 | 3.01 ± 0.067 | 2.79 ± 0.073

From the supplement of paper PMC9732359
